In patent WO2008131575A2 (dated 2008):

Molecular target: T1, human ALK epitope peptide (amino acids 391-406 of the ALK protein) (human)
T1 construct: the underscore is a remnant of the underlining; In the yeast screen it was fused to LexA; in the ELISA it is called the Alk LBD peptide; also called Alk LBD peptide; AIk LBD
T1 peptide: GRIGRPDNPFRVALEY
Assay: ELISA (Fig. 5)

Kd: 2 to 3 nM
B1: scFv 28.11 (scFv)
scFv: QSVLTQPPSVSAAPGQKVTISCSGSTSNIGDNYVSWYQQLPGTAPQLLIYDNTKRPSGIPDRFSGSKSGTSATLGITGLQTGDEADYYCATWDNDKWGVVFGGGTKLEVLGGGGGSGGGGSGGGGSSGGGSEVQLVESGGGLVQPGGSLRLSCAASGFTFSSYAMSWVRQAPGKGLEWVSAIETSSGSTYYADSVKGRFTISRDNSKNTLYLQMNSLRAEDTAVYYCARDAWLDVLSDGFDYWGQGTLVTVSS
